Test results: patent US20220185889

Target: CTLA-4 Ig functionalized with GzmB substrate (UniProt P16410)
Sequence (P16410 38-161): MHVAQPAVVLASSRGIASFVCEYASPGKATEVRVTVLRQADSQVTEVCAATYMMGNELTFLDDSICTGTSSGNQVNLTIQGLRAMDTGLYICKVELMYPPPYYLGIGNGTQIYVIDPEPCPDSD

B1: complement component S1 (enzyme, UniProt P09871 16-688, looked up, species assumed)
Complement C1s subcomponent: EPTMYGEILSPNYPQAYPSEVEKSWDIEVPEGYGIHLYFTHLDIELSENCAYDSVQIISGDTEEGRLCGQRSSNNPHSPIVEEFQVPYNKLQVIFKSDFSNEERFTGFAAYYVATDINECTDFVDVPCSHFCNNFIGGYFCSCPPEYFLHDDMKNCGVNCSGDVFTALIGEIASPNYPKPYPENSRCEYQIRLEKGFQVVVTLRREDFDVEAADSAGNCLDSLVFVAGDRQFGPYCGHGFPGPLNIETKSNALDIIFQTDLTGQKKGWKLRYHGDPMPCPKEDTPNSVWEPAKAKYVFRDVVQITCLDGFEVVEGRVGATSFYSTCQSNGKWSNSKLKCQPVDCGIPESIENGKVEDPESTLFGSVIRYTCEEPYYYMENGGGGEYHCAGNGSWVNEVLGPELPKCVPVCGVPREPFEEKQRIIGGSDADIKNFPWQVFFDNPWAGGALINEYWVLTAAHVVEGNREPTMYVGSTSVQTSRLAKSKMLTPEHVFIHPGWKLLEVPEGRTNFDNDIALVRLKDPVKMGPTVSPICLPGTSSDYNLMDGDLGLISGWGRTEKRDRAVRLKAARLPVAPLRKCKEVKVEKPTADAEAYVFTPNMICAGGEKGMDSCKGDSGGAFAVQDPNDKTKFYAAGLVSWGPQCGTYGLYTRVKNYVDWIMKTMQENSTPRED
- in vitro cleavage assay: no cross-cleavage by matrix, complement, or immune proteases
